Starred links: 1 amine or outer side, 2 acyl side, 3 side chain; linkers in the order of their positions; H or OH if unused. Positions of bridges follow the written chain, without caps; N, C: chain ends. Non-standard residues stand in square brackets, D forms with d. Primed or numbered codes have the meaning given here. B5(11) = 2,2-bis(4-pentenyl)glycine = 2-amino-2-(pent-4-en-1-yl)hept-6-enoic acid (stitching residue, bears both staples), C=CCCCC(CCCC=C)(N[*:1])C(=O)[*:2]; B5(24) = 2-amino-2-(pent-4-en-1-yl)hept-6-enoic acid, 2,2-bis(4-pentenyl)glycine (stitching residue), C=CCCCC(CCCC=C)(N[*:1])C(=O)[*:2]; B5(21) = 2-amino-2-(pent-4-en-1-yl)hept-6-enoic acid, bis(4-pentenyl)glycine (stitching residue), C=CCCCC(CCCC=C)(N[*:1])C(=O)[*:2]; S(OMe) = O-methyl-L-serine, COC[C@H](N[*:1])C(=O)[*:2]; Phe(2-NO2) = N[C@@H](Cc1ccccc1[N+](=O)[O-])C(=O)O; Phe(2-Br) = N[C@@H](Cc1ccccc1Br)C(=O)O; His(τ-Me) = Cn1cnc(C[C@H](N)C(=O)O)c1; Bta = N[C@@H](Cc1csc2ccccc12)C(=O)O; αAllylPro = C=CC[C@@]1(C(=O)O)CCCN1; NMeH = CN[C@@H](Cc1c[nH]cn1)C(=O)O; S8 = C=CCCCCCC[C@](C)(N)C(=O)O
T1: full-length beta-Catenin (Uniprot ID P35222) (Homo sapiens (Human), UniProt P35222 1-781)
T1 construct: The assay protocol says full-length beta-Catenin (Uniprot ID P35222); tags are not described; also called bCat; B-Catenin
T1 sequence: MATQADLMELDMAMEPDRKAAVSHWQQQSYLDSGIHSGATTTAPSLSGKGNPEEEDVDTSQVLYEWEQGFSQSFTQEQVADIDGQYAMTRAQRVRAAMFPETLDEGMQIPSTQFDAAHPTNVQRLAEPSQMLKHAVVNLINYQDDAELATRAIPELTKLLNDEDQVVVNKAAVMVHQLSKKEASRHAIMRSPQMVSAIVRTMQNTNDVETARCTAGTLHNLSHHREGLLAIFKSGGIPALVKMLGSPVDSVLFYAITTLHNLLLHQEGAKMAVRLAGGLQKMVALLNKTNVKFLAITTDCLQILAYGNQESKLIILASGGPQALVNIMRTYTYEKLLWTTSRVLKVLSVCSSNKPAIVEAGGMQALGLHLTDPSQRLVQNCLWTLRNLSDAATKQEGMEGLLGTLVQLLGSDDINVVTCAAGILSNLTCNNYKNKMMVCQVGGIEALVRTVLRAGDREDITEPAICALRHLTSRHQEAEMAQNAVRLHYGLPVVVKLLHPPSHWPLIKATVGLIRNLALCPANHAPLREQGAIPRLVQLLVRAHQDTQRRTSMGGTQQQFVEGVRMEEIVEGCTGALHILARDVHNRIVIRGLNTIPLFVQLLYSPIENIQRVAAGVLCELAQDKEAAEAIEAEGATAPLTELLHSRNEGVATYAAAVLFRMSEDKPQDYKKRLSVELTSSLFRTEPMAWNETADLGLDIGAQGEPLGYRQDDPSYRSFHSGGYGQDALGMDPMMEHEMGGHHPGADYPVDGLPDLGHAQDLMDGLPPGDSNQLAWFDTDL

T2: full-length beta-Catenin (Uniprot ID P35222) (Homo sapiens (Human), UniProt P35222 1-781)
T2 construct: also called bCat; B-Catenin
T2 sequence: T1 sequence

B1: I-440 (peptide)
peptide: XDAXDEAAFNXHXQ
modifications: not fully specified; Ac-PL3-Asp-Ala-B5-Asp-Glu-Ala-Ala-Phe-Asn-S8-1meH-BztA-Gln-NH2; N-terminal acetyl, C-terminal amide; stapled PL3(1)-B5(4) and B5(4)-S8(11) by olefin metathesis
notes: Staple isomer composition: later-eluting HPLC peak
B2: I-433 (peptide)
peptide: Ac-[αAllylPro]DA[B5(24)]DEAAF[S(OMe)][S8]F[Bta]Q-NH2
modifications: staple 1-4, 4-11
notes: Stapled (stitched) peptide with non-natural residues
B3: I-439 (peptide)
peptide: Ac-[αAllylPro]DA[B5(21)]DEAAFN[S8][His(τ-Me)][Bta]Q-NH2
modifications: staple 1-4, 4-11
notes: Staple isomer composition: earlier-eluting HPLC peak
B4: I-436 (peptide)
peptide: Ac-[αAllylPro]DA[B5(24)]DEAAFN[S8][Phe(2-Br)][Bta]Q-NH2
modifications: staple 1-4, 4-11
notes: as for B2
B5: I-441 (peptide)
peptide: Ac-[αAllylPro]DA[B5(21)]DEAAFN[S8][Phe(2-NO2)][Bta]Q-NH2
modifications: staple 1-4, 4-11
notes: as for B2
B6: I-744 (peptide)
peptide: XDLXDEAAFNXFXH
modifications: not fully specified; N-terminal Ac; C-terminal NH2; PL3 at 1, B5 at 4, S8 at 11, BztA at 13, dHis (D-His) at 14; stapled PL3-B5 and B5-S8 by olefin metathesis
notes: Stapled peptide; also called Ac-PL3-Asp-Leu-B5-Asp-Glu-Ala-Ala-Phe-Asn-S8-Phe-BztA-dHis-NH2
B7: I-748 (peptide)
peptide: XDLXDEAAFNXFXT
modifications: not fully specified; N-terminal Ac; C-terminal NH2; PL3 at 1, B5 at 4, S8 at 11, BztA at 13; stapled PL3-B5 and B5-S8 by olefin metathesis
notes: Stapled peptide; same description as I-749, earlier eluting staple isomer composition; also called Ac-PL3-Asp-Leu-B5-Asp-Glu-Ala-Ala-Phe-Asn-S8-Phe-BztA-Thr-NH2
B8: I-747 (peptide)
peptide: Ac-[αAllylPro]DL[B5(11)]DEAAFN[S8]F[Bta][NMeH]-NH2
modifications: staple 1-4, 4-11; not fully specified
notes: Stapled peptide; same description as I-746, later eluting staple isomer composition; also called Ac-PL3-Asp-Leu-B5-Asp-Glu-Ala-Ala-Phe-Asn-S8-Phe-BztA-NMeHis-NH2
B9: I-735 (peptide)
peptide: XDLXDEAAFNXFXQI
modifications: not fully specified; N-terminal Ac; C-terminal NH2; PL3 at 1, B5 at 4, S8 at 11, BztA at 13, dIle (D-Ile) at 15; stapled PL3-B5 and B5-S8 by olefin metathesis
notes: Stapled peptide; also called Ac-PL3-Asp-Leu-B5-Asp-Glu-Ala-Ala-Phe-Asn-S8-Phe-BztA-Gln-dIle-NH2
B10: I-746 (peptide)
peptide: Ac-[αAllylPro]DL[B5(11)]DEAAFN[S8]F[Bta][NMeH]-NH2
modifications: staple 1-4, 4-11; not fully specified
notes: Stapled peptide; same description as I-747, earlier eluting staple isomer composition; also called Ac-PL3-Asp-Leu-B5-Asp-Glu-Ala-Ala-Phe-Asn-S8-Phe-BztA-NMeHis-NH2
B11: I-745 (peptide)
peptide: XDLXDEAAFNXFXH
modifications: not fully specified; N-terminal Ac; C-terminal NH2; PL3 at 1, B5 at 4, S8 at 11, BztA at 13, dHis (D-His) at 14; stapled PL3-B5 and B5-S8 by olefin metathesis
notes: Stapled peptide; same description as I-744, later eluting staple isomer composition; also called Ac-PL3-Asp-Leu-B5-Asp-Glu-Ala-Ala-Phe-Asn-S8-Phe-BztA-dHis-NH2
B12: I-732 (peptide)
peptide: XDLXDEAAFNXFXQI
modifications: not fully specified; N-terminal Ac; C-terminal NH2; PL3 at 1, B5 at 4, S8 at 11, BztA at 13; stapled PL3-B5 and B5-S8 by olefin metathesis
notes: Stapled peptide; also called Ac-PL3-Asp-Leu-B5-Asp-Glu-Ala-Ala-Phe-Asn-S8-Phe-BztA-Gln-Ile-NH2
B13: I-742 (peptide)
peptide: XDLXDEAAFNXFXHI
modifications: not fully specified; N-terminal Ac; C-terminal NH2; PL3 at 1, B5 at 4, S8 at 11, BztA at 13, dIle (D-Ile) at 15; stapled PL3-B5 and B5-S8 by olefin metathesis
notes: also called Ac-PL3-Asp-Leu-B5-Asp-Glu-Ala-Ala-Phe-Asn-S8-Phe-BztA-His-dIle-NH2
B14: I-738 (peptide)
peptide: XDLXDEAAFNXFXHA
modifications: not fully specified; N-terminal Ac; C-terminal NH2; PL3 at 1, B5 at 4, S8 at 11, BztA at 13; stapled PL3-B5 and B5-S8 by olefin metathesis
notes: also called Ac-PL3-Asp-Leu-B5-Asp-Glu-Ala-Ala-Phe-Asn-S8-Phe-BztA-His-Ala-NH2
B15: I-740 (peptide)
peptide: XDLXDEAAFNXFXHI
modifications: not fully specified; N-terminal Ac; C-terminal NH2; PL3 at 1, B5 at 4, S8 at 11, BztA at 13; stapled PL3-B5 and B5-S8 by olefin metathesis
notes: Stapled peptide; same description as I-741, earlier eluting staple isomer composition; also called Ac-PL3-Asp-Leu-B5-Asp-Glu-Ala-Ala-Phe-Asn-S8-Phe-BztA-His-Ile-NH2
B16: I-741 (peptide)
peptide: XDLXDEAAFNXFXHI
modifications: not fully specified; N-terminal Ac; C-terminal NH2; PL3 at 1, B5 at 4, S8 at 11, BztA at 13; stapled PL3-B5 and B5-S8 by olefin metathesis
notes: Stapled peptide; same description as I-740, later eluting staple isomer composition; also called Ac-PL3-Asp-Leu-B5-Asp-Glu-Ala-Ala-Phe-Asn-S8-Phe-BztA-His-Ile-NH2
B17: I-729 (peptide)
peptide: XDLXDEAAFNXFXQA
modifications: not fully specified; N-terminal Ac; C-terminal NH2; PL3 at 1, B5 at 4, S8 at 11, BztA at 13; stapled PL3-B5 and B5-S8 by olefin metathesis
notes: Stapled peptide; same description as I-730, earlier eluting staple isomer composition; also called Ac-PL3-Asp-Leu-B5-Asp-Glu-Ala-Ala-Phe-Asn-S8-Phe-BztA-Gln-Ala-NH2
B18: I-739 (peptide)
peptide: XDLXDEAAFNXFXHA
modifications: not fully specified; N-terminal Ac; C-terminal NH2; PL3 at 1, B5 at 4, S8 at 11, BztA at 13, dAla (D-Ala) at 15; stapled PL3-B5 and B5-S8 by olefin metathesis
notes: also called Ac-PL3-Asp-Leu-B5-Asp-Glu-Ala-Ala-Phe-Asn-S8-Phe-BztA-His-dAla-NH2
B19: I-733 (peptide)
peptide: XDLXDEAAFNXFXQI
modifications: not fully specified; N-terminal Ac; C-terminal NH2; PL3 at 1, B5 at 4, S8 at 11, BztA at 13; stapled PL3-B5 and B5-S8 by olefin metathesis
notes: as for B12
B20: I-734 (peptide)
peptide: XDLXDEAAFNXFXQI
modifications: not fully specified; N-terminal Ac; C-terminal NH2; PL3 at 1, B5 at 4, S8 at 11, BztA at 13, dIle (D-Ile) at 15; stapled PL3-B5 and B5-S8 by olefin metathesis
notes: as for B9

These binders were tested against T1, full-length beta-Catenin (Uniprot ID …) (assay: fluorescence polarization competition: full-length beta-catenin + 5FAM-TCF4(10-53) probe, peptide titrated).
Procedure: (§1) The plate was incubated protected from light for 60 minutes at 20° C. prior to read. Reads were performed on a CLARIOstar plate reader (BMG Labtech) in duplicate, and data were fitted to a 1:1 binding model with hill slope using an in-house script. All provided concentrations are final concentrations.

| Binder | EC50 |
| --- | --- |
| B1 | 5000 nM |
| B2 | 136 nM |
| B3 | 5000 nM |
| B4 | 56 nM |
| B5 | 133 nM |

These binders were tested against T2, full-length beta-Catenin (Uniprot ID …) (assay: fluorescence polarization competition; full-length beta-catenin, competitor 5FAM-TCF4(10-53) probe).
Procedure: as §1

| Binder | IC50 |
| --- | --- |
| B6 | 112 nM |
| B7 | 54 nM |
| B8 | 2390 nM |
| B9 | 246 nM |
| B10 | 5000 nM |
| B11 | 80 nM |
| B12 | 4220 nM |
| B13 | 159 nM |
| B14 | 63 nM |
| B15 | 376 nM |
| B16 | 226 nM |
| B17 | 56 nM |
| B18 | 53 nM |
| B19 | 4260 nM |
| B20 | 370 nM |
